According to US20050064518A1 (PURDUE PHARMA L P, published 2005):

B1: monoclonal antibody 776.1 (antibody, V domains shown)
VH: EVQLQQSGPELVKPGASVKISCKASGYTFTDYNIHWVKQSHGKILEWIGYIYPYNGVSDYNQNFKSKATLIVDNSSNTAYMELRSLTSEDSAVYYCARWDFGSGYYFDYWGQGTTLTVSS
VL: QIVLSQSPAILFASPGETVTMTCRASSSVIYMCWNQQKPGSSPKPWIYGTSTLASGVPTRFSGSGSGTSYSLTISRVEAEDAATYYCQQWSSNPFTFGSGTKLEI
B2: OC125 (antibody)
chain 1: QVQLQESGPELVKPGASVKISCKASGYTFTDYNMHWVKQSHGKSLEWIGYIYPYNGDTGYNQKFRNKASLTVDTSSSTAYMELRSLTSEDSAVYYWARSGGFWYFDVWGQGGTTVTVSS
chain 2: DIQMTQSPAILSASPGEKVTMTCRATPSVSYMHWYQQKPGSSPKPLIYTTSNLASGVPARFSGGGSGTSYSLTVSRVEVEDAATYYCQQWSRSPPTFGAGTKLEIK
B3: O772P 3-repeat recombinant protein (other)
chain: AAQPARRARRTKLFTHRSSVSTTSTPGTPTVYLGASKTPASIFGPSAASHLLILFTLNFTITNLRYEENMWPGSRKFNTTERVLQGLLRPLFKNTSVGPLYSGCRLTLLRPEKDGEATGVDAICTHRPDPTGPGLDREQLYLELSQLTHSITELGPYTLDRDSLYVNGFTHRSSVPTTSTGVVSEEPFTLNFTINNLRYMADMGQPGSLKFNITDNVMKHLLSPLFQRSSLGARYTGCRVIALRSVKNGAETRVDLLCTYLQPLSGPGLPIKQVFHELSQQTHGITRLGPYSLDKDSLYLNGYNEPGPDEPPTTPKPATTFLPPLSEATTAMGYHLKTLTLNFTISNLQYSPDMGKGSATFNSTEGVLQHLLRPLFQKSSMGPFYLGCQLISLRPEKDGAATGVDTTCTYHPDPVGPGLDIQQLYWELSQLTHGVTQLGFYVLDRDSLFINGYAPQNLSIRGEYQINFHIVNWNLSNPDPTSSEYITLLRDIQDKVTTLYKGSQLHDTFRFCLVTNLTMDSVLVTVKALFSSNLDPSLVEQVFLDKTLNASFHWLGSTYQLVDIHVTEMESSVYQPTSSSSTQHFYLNFTITNLPYSQDKAQPGTTNYQRNKRNIEDALNQLFRNSSIKSYFSDCQVSTFRSVPNRHHTGVDSLCNFSPLARRVDRVAIYEEFLRMTRNGTQLQNFTLDRSSVLVDGYSPNRNEPLTGNSADIQHSGGRSSLEGPRFEQKLISEEDLNMHTGHHHHHH
notes: Repeats are residues 14-452 of the entry

Experiments:
[1] = target: B3; assay: BIAcore SPR, O772P 3-repeat immobilized, mAb injected
Method: A […] BIAcore biosensor chip was docked into the BIAcore X instrument and activated with 55 μl of 1:1 NHS/EDC at room temperature. O772P 3-repeat region protein and BSA at 10 μg/ml in 0.05 M acetate buffer, pH 4.5, were immobilized onto the flow cell (FC) 1 and FC2 of the activated chip, respectively, at a flow rate of 5 μl/min to achieve a resonance response of 1000-2000 RU. The chip was then blocked by injection of 55 μl of ethanolamine-HCl, pH 8.5, and followed with washing 5 times with 50 mM NaOH-1 M NaCl. To measure the binding of anti-0722P mAbs to the O772P 3-repeat region immobilized to the chip, 30 μl of anti-0722P mAbs at varying concentrations in BIAcore running buffer (HBS-EP, Cat. #1001-080, BIAcore, Piscataway, N.J.) were injected over the sensor surface at a flow rate of 5 μl/min. Following completion of the injection phase, dissociation was monitored in BIAcore running buffer at the same flow rate for 360 seconds. The surface was regenerated between injections using 30 μl of 50 mM NaOH-1 M NaCl. Individual sensorgrams were analyzed using BIAevaluation.

[2] = target: B3; assay: ELISA competition, plate-bound O772P 3-repeat; competitor soluble O772P 3-repeat
Method: (§1) On the next day, the plates were washed with 200 μl 1×PBST (1× phosphate-buffered saline (PBS), 0.05% Tween 20) three times and blocked with 100 μl of 1×PBST containing 1% bovine serum albumin (BSA) for 2 hours at 37° C. […] After 1 hour incubation at 37° C., the plates were then washed with 1×PBST three times. For signal detection, 100 μl of HRP-conjugated sheep anti-mouse IgG (1:2000 dilution into 1×PBST+1% BSA, Amersham Biosciences) was added to each well and incubated for 1 hour at 37° C. The plates were washed again with 1×PBST three times. Finally, 100 μl¹ of a mixture of TMB substrate and H₂O₂ (1:1 ratio, KPL) was added into each well and the absorbance was measured at 405 nm with a plate reader (Molecular Devices Corp., Sunnyvale, Calif.). The assay was done in triplicate for each selected antibody and average values were calculated and presented. The percent inhibition compared to no competition was calculated for individual antibodies based on average values. Controls for blank and individual reagents were also included in each experiment.

[3] = target: T1, O772P 3-repeat TM on transfected NIH/3T3 cells (human); assay: flow cytometry, NIH/3T3 cells expressing O772P 3-repeat TM; Ab 2 µg/ml
T1 construct: also called NIH/3T3 O772P 3-repeat
T1 chain: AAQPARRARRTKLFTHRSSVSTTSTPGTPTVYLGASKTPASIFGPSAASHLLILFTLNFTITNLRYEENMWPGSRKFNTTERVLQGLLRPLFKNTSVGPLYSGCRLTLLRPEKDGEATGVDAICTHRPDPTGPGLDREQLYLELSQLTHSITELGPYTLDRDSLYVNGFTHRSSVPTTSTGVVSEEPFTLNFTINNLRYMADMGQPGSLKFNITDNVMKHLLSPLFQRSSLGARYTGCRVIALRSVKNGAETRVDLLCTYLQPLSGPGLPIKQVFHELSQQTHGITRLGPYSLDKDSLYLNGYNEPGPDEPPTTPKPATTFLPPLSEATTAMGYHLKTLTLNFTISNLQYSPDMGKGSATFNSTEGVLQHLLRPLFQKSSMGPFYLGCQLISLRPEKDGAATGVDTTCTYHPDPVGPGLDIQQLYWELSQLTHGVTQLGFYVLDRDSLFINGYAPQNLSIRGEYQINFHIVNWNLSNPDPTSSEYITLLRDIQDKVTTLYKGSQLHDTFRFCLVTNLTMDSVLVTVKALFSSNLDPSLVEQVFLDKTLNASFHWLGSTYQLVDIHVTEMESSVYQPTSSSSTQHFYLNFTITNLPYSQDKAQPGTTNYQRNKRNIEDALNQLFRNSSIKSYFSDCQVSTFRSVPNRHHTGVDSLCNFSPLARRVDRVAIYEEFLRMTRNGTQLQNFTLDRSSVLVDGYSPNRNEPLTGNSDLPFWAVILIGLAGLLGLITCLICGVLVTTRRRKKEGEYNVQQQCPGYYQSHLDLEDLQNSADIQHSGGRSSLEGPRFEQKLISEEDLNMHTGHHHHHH

[4] = target: B3; assay: ELISA competition, plate-bound O772P 3-repeat; no competitor
Method: as §1

[5] = target: T2, CA 125/O772P on OVCAR-3 cells (human, UniProt Q8WXI7 1-14507); assay: flow cytometry, OVCAR-3 cells; Ab 2 µg/ml
T2 construct: whole, on cells

[6] = target: B3; assay: ELISA competition, plate-bound O772P 3-repeat; competitor shed CA 125/O772P
Method: as §1

[7] = target: B3; assay: ELISA, plate-bound O772P 3-repeat
Method: On the next day, the plates were washed with 200 μl 1×PBST (1× phosphate-buffered saline (PBS), 0.05% Tween 20) three times and blocked with 100 μl of 1×PBST containing 1% bovine serum albumin (BSA) for 2 hours at 37° C. […] After 1 hour incubation at 37° C., the plates were then washed with 1×PBST three times. For signal detection, 100 μl of HRP (horseradish peroxidase)-conjugated sheep anti-mouse IgG (1:2000 dilution into 1×PBST+1% BSA; Amersham Biosciences) was added to each well and incubated for 1 hour at 37° C. The plates were again washed three times with 1×PBST. Finally, 100 μl¹ of a mixture of TMB (3,3′, 5,5′-tetramethylbenzidine) substrate and H₂O₂ (1:1 ratio, KPL Kirkguard Perry Laboratories) was added into each well and after a 5 minute incubation, the absorbance was measured at 405 nm with a plate reader (Molecular Devices Corp., Sunnyvale, Calif.). The assay was done in triplicate for each selected O772P hybridoma-produced antibody and data was collected and analyzed as a kinetic assay, measured over a 5 minute time period. Average values were calculated and presented. Controls for blank and individual reagents were also included in each experiment.

[8] = target: B1; assay: ELISA competition: soluble O772P 3-repeat at 10x w/w excess against antibody binding to plate-bound O772P 3-repeat
Method: as §1

[9] = target: T3, monoclonal antibody 368.1; assay: as above
T3 construct: Murine hybridoma antibody
Method: as §1

[10] = target: T4, monoclonal antibody 501.1; assay: as above
T4 construct: Murine hybridoma antibody
Method: as §1

OC125 = target: B2; assay: as above
Method: as §1

[11] = target: T5, monoclonal antibody 117.1; assay: as above
T5 construct: Murine hybridoma antibody
Method: as §1

T3 sequence (VH, as listed by the source, chain 1 of 2): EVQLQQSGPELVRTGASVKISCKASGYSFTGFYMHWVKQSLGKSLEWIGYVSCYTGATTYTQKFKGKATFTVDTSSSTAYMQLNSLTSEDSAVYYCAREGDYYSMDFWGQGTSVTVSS
T3 sequence (VL, as listed by the source, chain 2 of 2): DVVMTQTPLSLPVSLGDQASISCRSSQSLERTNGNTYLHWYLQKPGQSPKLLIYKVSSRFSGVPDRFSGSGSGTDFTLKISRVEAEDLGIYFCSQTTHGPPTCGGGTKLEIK
T5 sequence (VH, as listed by the source, chain 1 of 2): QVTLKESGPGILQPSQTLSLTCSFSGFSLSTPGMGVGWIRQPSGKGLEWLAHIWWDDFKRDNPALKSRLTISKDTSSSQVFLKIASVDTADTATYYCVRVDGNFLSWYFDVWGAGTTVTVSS
T5 sequence (VL, as listed by the source, chain 2 of 2): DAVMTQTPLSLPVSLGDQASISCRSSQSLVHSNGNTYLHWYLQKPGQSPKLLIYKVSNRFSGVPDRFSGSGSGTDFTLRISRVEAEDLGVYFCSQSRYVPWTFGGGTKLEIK
T4 sequence (VH, as listed by the source, chain 1 of 2): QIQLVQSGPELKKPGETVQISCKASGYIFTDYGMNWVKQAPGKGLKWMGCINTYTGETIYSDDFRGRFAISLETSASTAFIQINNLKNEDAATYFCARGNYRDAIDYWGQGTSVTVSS
T4 sequence (VL, as listed by the source, chain 2 of 2): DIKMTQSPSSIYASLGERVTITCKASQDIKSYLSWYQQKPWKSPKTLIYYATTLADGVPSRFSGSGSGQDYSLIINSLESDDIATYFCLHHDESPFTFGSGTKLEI

Row | Binder | Kd [1] | absorbance w/O772P 3-repeat competitor (10 x w/w excess) [2] | absorbance [4] | absorbance w/shed CA 125/O772P competitor (25-fold w/w excess) [6] | absorbance (OD) [7] | absorbance (OD)/µg Ab [7] | further results
1 | monoclonal antibody 16H9 (antibody, V domains shown, Murine hybridoma antibody; also called hybridoma 16H9 (ATCC PTA-5108)) VH: EVQLQQSGAELVKPGASVKLSCTASGFNIKDTYMHWVKQRPEQGLEWIGRIDPANGNTKYDPKFQGKATITADTSSNTAYVQLSSLTSEDTAVYYCASSDIYYGNPGGFAYWGQGTLVTVSA VL: QIVLTQSPAIMSASLGERVTMTCTASSSVSSSYLHWYQQKPGSSPKLWIYSTSNLASGVPARFSGSGSGTSYSLTISSMEAEDAATYYCHQYHRSPFTFGSGTKLEI | 3.9 nM |  |  |  |  |  | 
2 | B1 | 0.4 nM | 0.077 OD | 1.18 OD | 0.977 OD | 1.18 OD | 29 OD/µg Ab | % positive cells [3]: 86%; % positive cells [5]: 94%
3 | monoclonal antibody 725.1 (antibody, V domains shown, Murine hybridoma antibody; also called hybridoma 725.1 (ATCC PTA-5124)) VH: QIQLVQSGPELKKPGETVKISCKASGYSFTNYGMNWVKQAPGKGLKWMGWINAYIGEPTYADDFKGRFAFSLEASTHTAYLQINSLKSEDTATYFCASGGNSLDFWGQGTTLTVSS VL: QIILSQSPAILSASPGEKVTMTCRASSSVSSIHWYQQKPESSPKPWIYATSNLASGVPVRFSGSGSGTSYTLTISRMEAADAATYYCQQWSIDPATFGGGTKLEI | 2.6 nM |  |  |  |  |  | 
4 | B2 | 4 nM | 0.047 OD | 0.73 OD | 0.074 OD | 0.73 OD | 18 OD/µg Ab | 
5 | B3 |  |  |  |  |  |  | percent inhibition of binding [8]: 96%; percent inhibition of binding [9]: 30%; percent inhibition of binding [10]: 96%; percent inhibition of binding (OC125): 99%; percent inhibition of binding [11]: 94%
